Where “and” joins values, the source holds several entries; their conditions need not be identical. Identical values can stand only once.
T1: human CD112R on Jurkat CD112R effector cells (human, UniProt Q6DKI7 1-326)
T1 sequence (looked up): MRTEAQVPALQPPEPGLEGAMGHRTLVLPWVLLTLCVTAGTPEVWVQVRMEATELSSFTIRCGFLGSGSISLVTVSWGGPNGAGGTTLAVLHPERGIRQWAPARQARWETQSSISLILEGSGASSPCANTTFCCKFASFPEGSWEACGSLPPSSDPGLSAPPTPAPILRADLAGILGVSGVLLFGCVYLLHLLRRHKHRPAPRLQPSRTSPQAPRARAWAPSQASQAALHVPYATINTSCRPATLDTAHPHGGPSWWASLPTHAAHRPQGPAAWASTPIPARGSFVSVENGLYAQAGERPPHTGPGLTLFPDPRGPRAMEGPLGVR

T2: hCD112R mFC recombinant protein (human; murine, UniProt Q6DKI7 41-160)
T2 construct: range 41-160; expressed in 293E cells; also called hCD112R ECD mFC; hCD112R-ECD-mFC; not shown: murine IgG2a Fc domain (MX2-mFc vector)
T2 sequence (looked up): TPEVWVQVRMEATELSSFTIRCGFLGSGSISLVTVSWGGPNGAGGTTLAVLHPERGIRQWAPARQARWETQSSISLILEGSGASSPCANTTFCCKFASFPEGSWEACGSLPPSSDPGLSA

B1: Hu37 (antibody, IgG4, V domains shown)
VH: EVQLVESGGGLVQPGGSLRLSCAASGFTFSSYHMSWVRQAPGKGLELVSAINSNVISTYYLDTVKGRFTISRDNAKNSLYLQMNSLRAEDTAVYYCARHEDYYGFAMDYWGQGTLVTVSS
VL: DIVMTQSPDSLAVSLGERATINCKASQSVTNDVAWYQQKPGQPPKLLIYYVSNHYTGVPDRFSGSGSGTDFTLTISSLQAEDVAVYFCQQAYRSPWTFGQGTKLEIK
B2: Hu18 (antibody, IgG4, V domains shown)
VH: EVQLVESGGGLVKPGGSLRLSCAASGFTFSSYHMSWVRQAPGKGLELVSAISRDGDSTYYPDTVKGRFTISRDNAKNSLYLQMNSLRAEDTAVYYCSRHEDYFGFAMDSWGQGTLVTVSS
VL: EIVMTQSPPTLSLSPGERVTLSCKASQSVSNDVAWYQQKPGQAPRLLIYYVSNRFTGIPARFSGSGSGTDFTLTISSLQPEDFAVYFCQQAYRSPWTFGQGTKLEIK
notes: humanized IgG4
B3: Hu39 (antibody, IgG4, V domains shown)
VH: EVQLVESGGGLVQPGGSLRLSCAASGFTFSSYHMSWVRQAPGKGLELVSAINSNVISTYYLDTVKGRFTISRDNAKNSLYLQMNSLRAEDTAVYYCARHEDYYGFAMDYWGQGTLVTVSS
VL: EIVMTQSPPTLSLSPGERVTLSCKASQSVSNDVAWYQEKPGQAPRLLIYYVSHRFTGIPARFSGSGSGTDFTLTISSLQPEDFAVYYCHQAYRSPWTFGQGTKLEIK
B4: Hu48 (antibody, IgG4, V domains shown)
VH: EVQLVESGGGLVKPGGSLRLSCAASGFTFSSYHMSWVRQAPGKGLELVSAINSNVISTYYLDTVKGRFTISRDNAKNSLYLQMNSLRAEDTAVYYCARHEDYYGFAMDYWGQGTLVTVSS
VL: EIVMTQSPPTLSLSPGERVTLSCKASQSVSNDVAWYQQKPGQAPRLLIYYVSNRFTGIPARFSGSGSGTDFTLTISSLQPEDFAVYFCQQAYRSPWTFGQGTKLEIK
B5: Hu42 (antibody, IgG4, V domains shown)
VH: EVQLVESGGGLVQPGGSLRLSCAASGFTFSSYHMSWVRQAPGKGLELVSAINSNVISTYYLDTVKGRFTISRDNAKNSLYLQMNSLRAEDTAVYYCARHEDYYGFAMDYWGQGTLVTVSS
VL: EIVMTQSPPTLSLSPGERVTLSCKASQSVSNDVAWYQQKPGQAPRLLIYYVSNRFTGIPARFSGSGSGTDFTLTISSLQPEDFAVYFCQQAYRSPWTFGQGTKLEIK
B6: Hu46 (antibody, IgG4, V domains shown)
VH: EVQLVESGGGLVKPGGSLRLSCAASGFTFSSYHMSWVRQAPGKGLELVSAINSNVISTYYLDTVKGRFTISRDNAKNSLYLQMNSLRAEDTAVYYCARHEDYYGFAMDYWGQGTLVTVSS
VL: DIVMTQSPDSLAVSLGERATINCKASQSVSNDVAWYQQKPGQPPKLLIYYVSHRFTGVPDRFSGSGSGTDFTLTISSLQAEDVAVYFCHQAYRSPWTFGQGTKLEIK
B7: Hu41 (antibody, IgG4, V domains shown)
VH: EVQLVESGGGLVQPGGSLRLSCAASGFTFSSYHMSWVRQAPGKGLELVSAINSNVISTYYLDTVKGRFTISRDNAKNSLYLQMNSLRAEDTAVYYCARHEDYYGFAMDYWGQGTLVTVSS
VL: DIQMTQSPSSLSASVGDRVTITCKASQSVSNDVAWYQQKPGKAPKLLIYYVSNRFTGVPSRFSGSGSGTDFTLTISSLQPEDFATYFCQQAYRSPWTFGQGTKLEIK
B8: Hu44 (antibody, IgG4, V domains shown)
VH: EVQLVESGGGLVKPGGSLRLSCAASGFTFSSYHMSWVRQAPGKGLELVSAINSNVISTYYLDTVKGRFTISRDNAKNSLYLQMNSLRAEDTAVYYCARHEDYYGFAMDYWGQGTLVTVSS
VL: AIQMTQSPSSLSASVGDRVTITCKASQSVTNDVAWYQQKPGKAPKLLIYYVSNHYTGVPSRFSGSGSGTDFTLTISSLQPEDFATYFCQQAYRSPWTFGQGTKLEIK
B9: Hu40 (antibody, IgG4, V domains shown)
VH: EVQLVESGGGLVQPGGSLRLSCAASGFTFSSYHMSWVRQAPGKGLELVSAINSNVISTYYLDTVKGRFTISRDNAKNSLYLQMNSLRAEDTAVYYCARHEDYYGFAMDYWGQGTLVTVSS
VL: DIVMTQSPDSLAVSLGERATINCKASQSVSNDVAWYQQKPGQPPKLLIYYVSHRFTGVPDRFSGSGSGTDFTLTISSLQAEDVAVYFCHQAYRSPWTFGQGTKLEIK
B10: Hu47 (antibody, IgG4, V domains shown)
VH: EVQLVESGGGLVKPGGSLRLSCAASGFTFSSYHMSWVRQAPGKGLELVSAINSNVISTYYLDTVKGRFTISRDNAKNSLYLQMNSLRAEDTAVYYCARHEDYYGFAMDYWGQGTLVTVSS
VL: DIQMTQSPSSLSASVGDRVTITCKASQSVSNDVAWYQQKPGKAPKLLIYYVSNRFTGVPSRFSGSGSGTDFTLTISSLQPEDFATYFCQQAYRSPWTFGQGTKLEIK
B11: Hu38 (antibody, IgG4, V domains shown)
VH: EVQLVESGGGLVQPGGSLRLSCAASGFTFSSYHMSWVRQAPGKGLELVSAINSNVISTYYLDTVKGRFTISRDNAKNSLYLQMNSLRAEDTAVYYCARHEDYYGFAMDYWGQGTLVTVSS
VL: AIQMTQSPSSLSASVGDRVTITCKASQSVTNDVAWYQQKPGKAPKLLIYYVSNHYTGVPSRFSGSGSGTDFTLTISSLQPEDFATYFCQQAYRSPWTFGQGTKLEIK
B12: Hu43 (antibody, IgG4, V domains shown)
VH: EVQLVESGGGLVKPGGSLRLSCAASGFTFSSYHMSWVRQAPGKGLELVSAINSNVISTYYLDTVKGRFTISRDNAKNSLYLQMNSLRAEDTAVYYCARHEDYYGFAMDYWGQGTLVTVSS
VL: DIVMTQSPDSLAVSLGERATINCKASQSVTNDVAWYQQKPGQPPKLLIYYVSNHYTGVPDRFSGSGSGTDFTLTISSLQAEDVAVYFCQQAYRSPWTFGQGTKLEIK
B13: Hu1 (antibody, IgG4, V domains shown)
VH: EVQLVESGGGLVQPGGSLRLSCAASGFTFSSYHMSWVRQAPGKGLELVAAINSNDINTYYLDTVKGRFTISRDIAKNSLYLQMNSLRAEDTAVYYCARHEDYYGFAMDYWGQGTLVTVSS
VL: DIVMTQSPDSLAVSLGERATINCKASQSVTNDVAWYQQKPGQPPKLLIYYVSNHYTGVPDRFSGSGSGTDFTLTISSLQAEDVAVYFCQQAYRSPWTFGQGTKLEIK
notes: humanized IgG4; also called Hu-01
B14: Hu45 (antibody, IgG4, V domains shown)
VH: EVQLVESGGGLVKPGGSLRLSCAASGFTFSSYHMSWVRQAPGKGLELVSAINSNVISTYYLDTVKGRFTISRDNAKNSLYLQMNSLRAEDTAVYYCARHEDYYGFAMDYWGQGTLVTVSS
VL: EIVMTQSPPTLSLSPGERVTLSCKASQSVSNDVAWYQEKPGQAPRLLIYYVSHRFTGIPARFSGSGSGTDFTLTISSLQPEDFAVYYCHQAYRSPWTFGQGTKLEIK

Assays:
[1] = target: T1, human CD112R on Jurkat CD112R effector …; experiment: cell-based or functional assay
[2] = target: T2, hCD112R mFC recombinant protein; experiment: ELISA, coated hCD112R-ECD-mFC
Experimental: (§1) A plate was coated with a hCD112R-ECD-mFC protein (1.5 μg/mL) at a fixed concentration, and the humanized anti-CD112R antibodies diluted in a gradient (initial concentration: 1 μg/mL, 2.5-fold gradient dilution, 12 concentration gradients in total) were added to bind to the antigen. HRP-conjugated goat anti-human antibody IgG (Fc specific) (Sigma, A0170) was subjected to a 5000-fold dilution and used as a detection antibody for detection. The color development was performed with 0.1 mg/mL TMB, and finally stopped with 2 M hydrochloric acid. The plate was read at 420 nm/620 nm. EC₅₀ was obtained by fitting with a four-parameter logistic regression (4PL) model. The […] were COM701 (anti-CD112R antibody, Compugen, obtained by expression and purification according to the sequences in US20180280506A1) and the anti-KLH hu-IgG4 antibody.

[3] = target: T2, hCD112R mFC recombinant protein; experiment: ELISA, coated hCD112R-ECD-mFC; EC50 COM701/EC50 antibody
Experimental: as §1

[4] = target: T2, hCD112R mFC recombinant protein; experiment: FACS competition, hCD112R mFc on CHO CD112 cells
Experimental: (§2) Cells CHO CD112 overexpressing human CD112 were co-incubated with a hCD112R mFc protein solution (5 μg/mL) prepared in a staining buffer (PBS+1% FBS), and the humanized anti-CD112R antibodies or the control antibodies at different concentrations (initial concentration: 100 μg/mL, 3-fold dilution, 10 concentration gradients) at 4° C. for 30 min. Unbound antibodies were then washed with a staining buffer and the cells were incubated with 1% (v/v) goat anti-mouse IgG Fc fluorescent secondary antibodies (Jackson ImmunoResearch) prepared in a staining buffer at 4° C. for 30 min in the dark. Finally, the cells were collected by using a flow cytometer (BD Canto II), and the fluorescent antibodies bound to the cell surface were detected. Raw data were analyzed by using FlowJo to obtain MFI values, and a four-parameter curve fitting was performed by using GraphPad Prism software to obtain IC₅₀ values. The positive control and the negative control were COM701 (anti-CD112R antibody, Compugen, obtained by expression and purification according to the sequences in US20180280506A1) and the anti-KLH hu-IgG4 antibody, respectively.

[5] = target: T2, hCD112R mFC recombinant protein; experiment: FACS competition, hCD112R mFc on CHO CD112 cells; IC50 COM701/IC50 antibody
Experimental: as §2

Binder | EC50, CD112R/CD112 reporter [1] [µg/mL] | Relative activity (%), EC50 COM701/EC50 antibody [1] [%] | EC50 [2] [µg/mL] | Relative activity (%) [3] [%] | IC50 [4] | Relative activity (%) [5] [%]
B1 | 0.0355 | 182 | – | – | – | –
B2 | 0.0263 | 209 | 0.00466 | 122 | 3.39 µg/mL and 2.51 µg/mL | –
B3 | 0.0217 | 254 | – | – | – | –
B4 | 0.0421 | 176 | – | – | – | –
B5 | 0.0355 | 183 | – | – | – | –
B6 | 0.0269 | 249 | – | – | – | –
B7 | 0.0267 | 243 | – | – | – | –
B8 | 0.0387 | 174 | – | – | – | –
B9 | 0.0242 | 227 | – | – | – | –
B10 | 0.039 | 190 | – | – | – | –
B11 | 0.0337 | 192 | – | – | – | –
B12 | 0.0426 | 158 | – | – | – | –
B13 | 0.0688 | 92 | 0.00276 | 154 | 4.31 µg/mL | 92.2
B14 | 0.0256 | 261 | – | – | – | –
